Laboratory results reported in patent US20190300590A1 (PROTAGONIST THERAPEUTICS, published 2019).
Each block holds one binder with its values, some of them ahead of it. Bridges are numbered along the chain shown (N, C = ends). Where no end group is shown, it is not given here. [ ]: non-standard residue; d: D form. 2Nal = N[C@@H](Cc1ccc2ccccc2c1)C(=O)O; AEF = NCCOc1ccc(C[C@H](N)C(=O)O)cc1; AllylGly = C=CC[C@H](N)C(=O)O; DIG = diglycolic acid linker; Pen = CC(C)(S)[C@H](N)C(=O)O; Thp = NC1(C(=O)O)CCOCC1; Abu = CC[C@H](N)C(=O)O; AEA = NCCOCC(=O)O; βAla = NCCC(=O)O

Key:
Rat IL-23R_huFC [1] = biological target: T1, Rat IL-23R_huFC (rat; human, UniProt F1LX96 39-369); experiment: rat IL-23R competitive ELISA
T1 sequence: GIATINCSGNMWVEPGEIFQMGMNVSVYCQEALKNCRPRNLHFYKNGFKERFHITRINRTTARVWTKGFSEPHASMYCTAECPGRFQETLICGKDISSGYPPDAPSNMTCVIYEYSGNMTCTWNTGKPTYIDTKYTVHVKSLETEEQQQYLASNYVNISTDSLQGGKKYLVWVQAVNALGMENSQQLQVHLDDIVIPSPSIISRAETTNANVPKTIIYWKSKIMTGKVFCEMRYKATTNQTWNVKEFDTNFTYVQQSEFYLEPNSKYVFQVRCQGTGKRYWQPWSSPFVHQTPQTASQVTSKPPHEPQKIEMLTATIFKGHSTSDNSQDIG

IL23R_huFC [2] = biological target: T2, IL23R_huFC (human, UniProt Q5VWK5 24-353); experiment: human ELISA vs IL-23
T2 sequence (looked up): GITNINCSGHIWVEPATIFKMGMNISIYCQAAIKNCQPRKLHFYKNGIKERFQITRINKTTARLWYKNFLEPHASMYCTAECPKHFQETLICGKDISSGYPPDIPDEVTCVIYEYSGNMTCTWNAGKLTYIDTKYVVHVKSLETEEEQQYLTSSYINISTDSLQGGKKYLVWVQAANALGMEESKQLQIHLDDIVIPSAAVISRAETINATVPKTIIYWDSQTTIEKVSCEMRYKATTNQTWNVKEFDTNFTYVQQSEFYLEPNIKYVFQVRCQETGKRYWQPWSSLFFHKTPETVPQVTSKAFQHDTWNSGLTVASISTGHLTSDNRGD

[3] = biological target: T3, IL-23R on human cells (IL-23R-expressing DB cells; human NK cells) (human, UniProt Q5VWK5 24-629); experiment: cell-based or functional assay
T3 sequence (looked up): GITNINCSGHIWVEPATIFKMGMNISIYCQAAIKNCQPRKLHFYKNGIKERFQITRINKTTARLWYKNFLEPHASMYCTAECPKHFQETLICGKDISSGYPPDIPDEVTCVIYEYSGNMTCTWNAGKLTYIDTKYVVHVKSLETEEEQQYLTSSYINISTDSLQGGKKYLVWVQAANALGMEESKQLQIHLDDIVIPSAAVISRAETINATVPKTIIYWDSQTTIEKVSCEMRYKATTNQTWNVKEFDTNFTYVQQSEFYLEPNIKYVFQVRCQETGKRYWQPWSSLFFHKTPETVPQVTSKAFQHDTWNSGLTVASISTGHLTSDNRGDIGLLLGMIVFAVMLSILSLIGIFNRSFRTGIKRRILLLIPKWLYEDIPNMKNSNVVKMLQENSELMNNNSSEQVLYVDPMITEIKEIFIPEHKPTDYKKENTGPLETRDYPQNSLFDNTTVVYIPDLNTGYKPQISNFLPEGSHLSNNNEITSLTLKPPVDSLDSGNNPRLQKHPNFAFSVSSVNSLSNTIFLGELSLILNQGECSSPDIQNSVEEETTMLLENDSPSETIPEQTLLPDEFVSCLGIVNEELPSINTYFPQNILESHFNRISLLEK

[4] = biological target: T3, IL-23R on human cells …; experiment: cell-based or functional assay; remark: listed apart in the source
Rat IL-23R_huFC [5] = biological target: Rat IL-23R_huFC (rat); experiment: rat ELISA vs IL-23
IL23R_huFC [6] = biological target: T4, IL23R_huFC (human, UniProt Q5VWK5 24-353); experiment: IL23-IL23R competitive ELISA, IC50 grade
T4 sequence (looked up): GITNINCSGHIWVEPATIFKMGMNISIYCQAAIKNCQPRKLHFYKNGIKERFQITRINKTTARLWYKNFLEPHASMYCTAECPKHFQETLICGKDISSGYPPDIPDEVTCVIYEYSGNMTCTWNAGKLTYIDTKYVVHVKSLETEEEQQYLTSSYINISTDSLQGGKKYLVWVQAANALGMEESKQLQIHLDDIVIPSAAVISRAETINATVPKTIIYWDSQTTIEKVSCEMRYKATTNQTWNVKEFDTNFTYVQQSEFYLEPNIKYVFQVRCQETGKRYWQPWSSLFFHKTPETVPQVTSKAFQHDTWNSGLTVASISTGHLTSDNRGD

Rat IL-23R_huFC [7] = biological target: Rat IL-23R_huFC (rat); experiment: rat ELISA vs IL-23; remark: listed apart in the source
IL23R_huFC [8] = biological target: T2, IL23R_huFC; experiment: human ELISA vs IL-23; remark: listed apart in the source
Rat IL-23R_huFC [9] = biological target: Rat IL-23R_huFC (rat); experiment: IL-23/IL-23R competitive binding ELISA, rat
Cyno IL-23R_huFC = biological target: T5, Cyno IL-23R_huFC (cyno, UniProt G7NWY5 24-353); experiment: IL-23/IL-23R competitive binding ELISA, cyno
T5 sequence: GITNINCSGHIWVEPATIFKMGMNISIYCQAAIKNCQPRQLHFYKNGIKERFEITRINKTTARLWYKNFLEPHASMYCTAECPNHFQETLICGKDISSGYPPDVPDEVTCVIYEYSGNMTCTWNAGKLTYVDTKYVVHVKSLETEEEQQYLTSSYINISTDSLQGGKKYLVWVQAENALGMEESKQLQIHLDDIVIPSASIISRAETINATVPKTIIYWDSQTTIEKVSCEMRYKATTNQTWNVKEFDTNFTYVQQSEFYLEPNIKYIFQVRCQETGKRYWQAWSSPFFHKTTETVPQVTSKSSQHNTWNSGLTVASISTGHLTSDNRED

Rat IL-23R_huFC [10] = biological target: Rat IL-23R_huFC (rat); experiment: rat ELISA vs IL-23; remark: listed apart in the source
IL23R_huFC [11] = biological target: T2, IL23R_huFC; experiment: human ELISA vs IL-23; remark: listed apart in the source

IC50 (Rat IL-23R_huFC [1]): 2210 nM
B1: Ac-CQTWQCYW-[βAla]-VFG-[AEA]-[(D)Lys]-NH2 (peptide)
peptide: Ac-CQTWQCYW[βAla]VFG[AEA][dK]-NH2
modifications: disulfide 1-6 (inferred)

IC50 (IL23R_huFC [2]): < 10 nM
pStat3 HTRF IC50 [3]: < 10 nM
NK cell assay IC50 (IFNγ) [4]: < 25 nM
IC50 (Rat IL-23R_huFC [5]): 10 to 25 nM
B2: [Ac-Cyclo-[[Abu]-QTWQC]-[Phe(4-OMe)]-[2-Nal]-[α-MeLys+-ENG-NH2]2DIG (peptide)
peptide: XQTWQCFXKENG
modifications: not fully specified; as bracketed in name; thioether cyclo; DIG linker through a-MeLys

IC50 (IL23R_huFC [6]): 1 to 10 µM
B3: (Ac-CADWVCYWHTKG-OH)2DIG (peptide)
peptide: Ac-CADWVCYWHTK(DIG)G-OH
modifications: cysteine pairing not given here; also: dimer through DIG on Lys

IC50 (Rat IL-23R_huFC [7]): 1 to 10 µM
B4: Ac-[(D)Pen]-ADWVCYWHTFG-[AEA]-[(D)-Lys]-NH2 (peptide)
peptide: XADWVCYWHTFGXK
modifications: as bracketed in name; cyclized via Cys and Pen

IC50 (IL23R_huFC [8]): ~20 µM
B5: SEQ ID NO. 1000 peptide (drawing CHEM-US-00114) (peptide)
peptide: [AllylGly]ADWV[AllylGly]YWHTFG
modifications: staple 1-6 (inferred)

IC50 (Rat IL-23R_huFC [1]): 1060 nM
B6: Ac-CQTWQCYWR-[Aib]-NG-[AEA]-[(D)Lys]-NH2 (peptide)
peptide: CQTWQCYWRXNGXK
modifications: Ac-; [Aib]; [AEA]; [(D)Lys]; -NH2

IC50 (Rat IL-23R_huFC [9]): 3 nM
IC50 (Cyno IL-23R_huFC): 1.3 nM
B7: Peptide 980 (peptide)
peptide: Ac-[Abu]QTWQC[AEF][2Nal][Thp]ENN-NH2
modifications: thioether 1-6

IC50 (Rat IL-23R_huFC [10]): 100 to 1000 nM
B8: Ac-[Pen]-RTWQCYWRKFG-[AEA]-[(D)-Lys]-NH2 (peptide)
peptide: Ac-[Pen]RTWQCYWRKFG[AEA][dK]-NH2
modifications: disulfide 1-6 (inferred)

IC50 (IL23R_huFC [6]): 1 to 10 µM
B9: (Hy-FPTWEWYWCNRD-NH2)2, oxidized dimer through the cysteine (peptide)
peptide: H-FPTWEWYWCNRD-NH2
modifications: also: oxidized dimer via intermolecular Cys9-Cys9 disulfide

IC50 (IL23R_huFC [2]): < 10 nM
pStat3 HTRF IC50 [3]: < 10 nM
IC50 (Rat IL-23R_huFC [5]): 10 to 25 nM
B10: [Ac-[(D)Lys]-Cyclo-[[Abu]-QTWQC]-[Phe(4-OMe)]-[2-Nal]-[α-MeLys]-ENG-NH2]2 PEG25 (peptide)
peptide: KXQTWQCFXKENG
modifications: not fully specified; as bracketed in name; thioether cyclo; PEG25 linker through α-MeLys

IC50 (IL23R_huFC [11]): 25 to 100 nM
B11: [Ac-Cyclo-[[Abu]-QTWQC]-[Phe]4-(2-aminoethoxy)]]-[2-Nal]-[Aib]-QNG-NH2]2DIG (peptide)
peptide: XQTWQCFXXQNG
modifications: not fully specified; as bracketed in name; thioether cyclo; DIG linker through Phe[4-(2-aminoethoxy)]
